Values quoted from earlier work in publication PMC3137898.
pKd: −log10 of the molar value.

Biological target: syntrophin PDZ (Mus musculus) (UniProt Q61234)
Sequence (Q61234 78-167): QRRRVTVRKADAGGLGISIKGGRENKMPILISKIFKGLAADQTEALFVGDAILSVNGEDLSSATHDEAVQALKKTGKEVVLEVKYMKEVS

Sequence of neuronal nitric oxide synthase PDZ (P29476 14-102): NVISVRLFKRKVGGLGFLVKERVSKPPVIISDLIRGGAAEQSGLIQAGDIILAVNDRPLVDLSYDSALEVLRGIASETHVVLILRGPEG

pKd: 6.22
Substance: neuronal nitric oxide synthase PDZ (from UniProt P29476)
